Results from patent CN110538321A (JIANGSU HENGRUI MEDICINE CO; SHANGHAI HENGRUI …, dated 2019).
Positions count from the first letter of the chain named. One block for each binder: values may come before it.

Tests used:
[1] = molecular target: T1, 人CD47蛋白 (Leukocyte surface antigen CD47) (human, UniProt Q08722 19-141); assay: Biacore (SPR)
T1 construct: extracellular domain; The assays say only 'CD47'; also called human CD47

[2] = molecular target: T1, 人CD47蛋白 (Leukocyte surface antigen CD47); assay: CD47 binding ELISA, hybridoma screening
[3] = molecular target: T1, 人CD47蛋白 (Leukocyte surface antigen CD47); assay: Biacore (SPR), reference antibody of the comparison

T1 sequence (Q08722 19-141 limits assumed): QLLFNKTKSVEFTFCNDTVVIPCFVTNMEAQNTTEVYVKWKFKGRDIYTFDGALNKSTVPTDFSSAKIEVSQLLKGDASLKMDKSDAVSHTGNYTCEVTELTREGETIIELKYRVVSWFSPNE

- KD ratio relative to hu167-4 [1]: 1.3
B1: hu167-31 (antibody, V domains shown)
VH: QVQLVQSGAEVKKPGASVKVSCKASGYTFTSYWMHWVRQAPGQGLEWMGNIDPSDSETHYNQKFKDRVTMTRDTSISTAYMELSRLRSDDTAVYYCARWGYLGRSAMDYWGQGTTVTVSS
VL: DVQMTQSPSSLSASVGDRVTITCRTSKSISKFLAWYQQKPGKAPKLLIYSGSTLQSGVPSRFSGSGSGTDFTLTISSLQPEDFATYYCQQHNEYPWTFGGGTKVEIK

- KD ratio relative to hu167-4 [1]: 1.2
B2: hu167-32 (antibody, V domains shown)
VH: B1 VH
VL: B1 VL with V2I, M4I

- KD ratio relative to hu167-4 [1]: 0.98
B3: hu167-33 (antibody, human IgG4 S228P, kappa, F234A L235A, V domains shown)
VH: B1 VH
VL: DVQITQSPSSLSASVGDRVTITCRTSKSISKFLAWYQQKPGKAPKLLIYSGSTLQSGVPSRFSGSGSGTDFTLTISSLQPEDFATYYCQQHNEYPWTFGGGTKVEIKR

- binding result [2]: binds
B4: 杂交瘤克隆167鼠源抗体 (antibody, V domains shown)
VH: QVQLQQPGAELVRPGSSVKLSCKASGYTFTSYWMHWVKQRPIQGLEWVGNIDPSDSETHYNQKFKDKATLTVDKSSSTAYMQLSSLTSEDSAVYYCARWGYLGRSAMDYWGQGTSVTVSS
VL: DVQITQSPSYLAASPGETITINCRTSKSISKFLAWYQEKPGKTHKLLIYSGSTLQSGIPSRFSGSGSGTDFTLTISSLEPEDFAMYYCQQHNEYPWTFGGGTKLEIK
notes: Mouse hybridoma antibody; also called 鼠源抗体167

- binding result [3]: binds
B5: 嵌合抗体ch-055 (antibody, V domains shown)
VH: QVLLQQSGPELVQPGASVKISCKASGYSFTSSYLHWVKQRPGQGLDWIGWIYPESGNTKYNERFKGKATLTADTSSSTAYMQLSSLTSEDSAVYYCSRRGDVFFAYWGQGTTLTVSS
VL: DIVMTQSPSYLTVTAGEKVTMSCKSSQSLLTSGKQKNYLTWYQQKPGQPPKLLIYWASTRESGVPERFRGSGSGTDFTLTISSVQAEDLAVYYCQNDYSYPLTFGAGTKLELN
notes: Chimeric antibody of clone 055

- binding result [2]: binds
B6: 杂交瘤克隆055鼠源抗体 (antibody, V domains shown)
VH: B5 VH
VL: B5 VL
notes: Mouse hybridoma antibody; also called 鼠源抗体055

- binding result [1]: binds
B7: hu055-5 (antibody, human IgG4 S228P, kappa, F234A L235A, V domains shown)
VH: QVQLVQSGAEVKKPGASVKVSCKASGYTFTSSYLHWVRQAPGQRLDWIGWIYPESGNTKYNERFKGRATLTADTSASTAYMELSSLRSEDTAVYYCARRGDVFFAYWGQGTTVTVSS
VL: DIVMTQSPDSLAVSLGERATINCKSSQSLLTSGKQKNYLTWYQQKPGQPPKLLIYWASTRESGVPDRFSGSGSGTDFTLTISSLQAEDVAVYYCQNDYSYPLTFGQGTKLEIKR
